The target of the assay is untagged human Nit1 isoform 4 (human). Nature of the assay: SEC; untagged proteins after on-column TEV cleavage, Superdex 200-HR, 50 mM Tris/HCl pH 8.0, 100 mM NaCl, 2 mM MgCl2, 0.3 mL/min; calibrated with marker proteins.

On to “untagged human Nit1 isoform 4 (natural protein)”, for which the stoichiometry N (in general, a count of units in the complex or per binding partner) is 4.
